Experiment: 35S pulse-chase, HA immunoprecipitation from lysate and media
Settings: glycan lost; control: wild type Cab45-HA

B1: Cab45: Cab45-N40G (protein)
parent chain: MVWPWVAMASRWGPLIGLAPCCLWLLGAVLLMDASARPANHSSTRERVANREENEILPPDHLNGVKLEMDGHLNRGFHQEVFLGKDLGGFDEDAEPRRSRRKLMVIFSKVDVNTDRKISAKEMQRWIMEKTAEHFQEAMEESKTHFRAVDPDGDGHVSWDEYKVKFLASKGHSEKEVADAIRLNEELKVDEETQEVLENLKDRWYQADSPPADLLLTEEEFLSFLHPEHSRGMLRFMVKEIVRDLDQDGDKQLSVPEFISLPVGTVENQQGQDIDDNWVKDRKKEFEELIDSNHDGIVTAEELESYMDPMNEYNALNEAKQMIAVADENQNHHLEPEEVLKYSEFFTGSKLVDYARSVHEEF
- expression_or_secretion: no change
